Data published in patent US20210338833A1 (MIT, published 2021).
Ends that are not written are not given here. * marks the point of attachment. Biotin = O=C1N[C@H]2[C@H](CS[C@H]2CCCCC(=O)*)N1

B1: anti-mCD19 (clone 1D3) IgG (antibody, V domains shown)
VH: EVQLQQSGAELVRPGTSVKLSCKVSGDTITFYYMHFVKQRPGQGLEWIGRIDPEDESTKYSEKFKNKATLTADTSSNTAYLKLSSLTSEDTATYFCIYGGYYFDYWGQGVMVTVSS
VL: DIQMTQSPASLSTSLGETVTIQCQASEDIYSGLAWYQQKPGKSPQLLIYGASDLQDGVPSRFSGSGSGTQYSLKITSMQTEDEGVYFCQQGLTYPRTFGGGTKLELK
notes: Anti-mouse CD19 IgG; biotinylated for sorting; also called 1D3 antibody; anti-mCD19 IgG
B2: 1D3 Mimotope Multimer H1 + E2 SKLKGKSGPEIRVLMSRVFA (peptide)
peptide: SKLKGKSGPEIRVLMSRVFA
notes: Chemically synthesized 20 amino acid fusion of two mimotopes; also called fusion mimotope
B3: 1D3 Mimotope Multimer H1 + C11 SKLKGKSGPEFHWFINVPPF (peptide)
peptide: SKLKGKSGPEFHWFINVPPF
notes: as for B2
B4: biotinylated F12 derivative GSGGGGSGGGGSASRICPWNCKEL (peptide)
peptide: Biotin-GSGGGGSGGGGSASRICPWNCKEL
modifications: not fully specified (bridges); cysteine pairing not given here
notes: Free peptide loaded on a streptavidin coated plate for ELISA
B5: biotinylated F12 derivative GGSGGGGSASRICPWNCKEL (peptide)
peptide: Biotin-GGSGGGGSASRICPWNCKEL
modifications: not fully specified (bridges); cysteine pairing not given here
notes: as for B4
B6: biotinylated F12 derivative SASRICPWNCKEL (peptide)
peptide: Biotin-SASRICPWNCKEL
modifications: not fully specified (bridges); cysteine pairing not given here
notes: as for B4
B7: biotinylated F12 derivative GGGSASRICPWNCKEL (peptide)
peptide: Biotin-GGGSASRICPWNCKEL
modifications: not fully specified (bridges); cysteine pairing not given here
notes: as for B4
B8: biotinylated F12 derivative GGGGSGGGGSGGGGSASRICPWNCKEL (peptide)
peptide: Biotin-GGGGSGGGGSGGGGSASRICPWNCKEL
modifications: not fully specified (bridges); cysteine pairing not given here
notes: as for B4
B9: 1D3 Mimotope (H1) SKLKGKSGPE (peptide)
peptide: SKLKGKSGPE
B10: FMC63 Mimotope Mutant RLCPWSAACREL (peptide)
peptide: RLCPWSAACREL
notes: also called G9 with two alanines inserted between the cysteines
B11: FMC63 Mimotope Mutant RLCPWSACREL (peptide)
peptide: RLCPWSACREL
notes: also called G9 with one alanine inserted between the cysteines

Target: B9
Experiment: ELISA, OD(450nm) against the concentration of 1D3 IgG; label under the circle curve (H1)
Work on B1 yielded a Kd of 190 nM.

Each binder was assayed against B1 (assay: ELISA with anti-mCD19 IgG (1D3)).
Experimental: (§1) Specifically, a library was generated using nested PCR and the primers in Table 1. […] For each round of enrichment, the top 0.5-1% of yeast were sorted. Following enrichment, isolated clones were subjected to Sanger sequencing. […] To further characterize the mimotope affinity, absolute binding affinity was measured by ELISA. Specifically, three mimotopes were selected for screening (Table 8). Of the selected sequences, two fusion mimotopes were chemically synthesized. Specifically, two mimotopes were fused to form a 20 amino acid peptide (Table 9).
B2: binds.
B3: binds.

These binders were tested against T1, FMC63 IgG (assay: ELISA, N-terminally biotinylated peptide on streptavidin plate, FMC63 IgG).
T1 construct: Murine monoclonal antibody to human CD19; also called FMC63 IgG antibody; biotinylated FMC63 IgG
Target sequence in this assay (VH, as listed by the source, chain 1 of 2): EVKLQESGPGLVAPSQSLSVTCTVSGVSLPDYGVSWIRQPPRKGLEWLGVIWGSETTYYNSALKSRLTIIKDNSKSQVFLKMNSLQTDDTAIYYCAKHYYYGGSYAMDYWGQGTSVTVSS
Target sequence in this assay (VL, as listed by the source, chain 2 of 2): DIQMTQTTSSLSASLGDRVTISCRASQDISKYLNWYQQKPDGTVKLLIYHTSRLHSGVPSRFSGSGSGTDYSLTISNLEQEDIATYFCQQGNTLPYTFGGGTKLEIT
B4 was tested, and the Kd was 0.134 nM.
B5 gave a Kd of 0.139 nM.
B6 showed a Kd of 0.147 nM.
For B7, the Kd was 0.141 nM.
Binder B8 has a Kd of 0.153 nM.

Target: B3
Experiment: ELISA, OD(450nm) against the concentration of 1D3 IgG; label beside the square curve (H1 + C11)
Experimental: as §1
Binder B1 has a Kd of 102 nM.

These binders were tested against T1, FMC63 IgG (assay: flow cytometry of yeast-displayed mutant with 5 µM FMC63 IgG).
Experimental: (§2) Specifically, a representative mimotope, […] […] To generate mutations, two complementary oligos with the codon replaced at the desired site were denatured at 95° C. and annealed by slow cooling to 25° C. (decreasing by 0.5° C./second). The annealed oligos were treated with T4 PNK (T4 Polynucleotide Kinase) to add a terminal phosphate, and then ligated into digested pCT-CON2 vector. Positive clones having the correct oligo inserted were tested and transformed into competent EBY100 yeast cells.
Target sequence in this assay (VH, as listed by the source, chain 1 of 2): as the sequence (VH, as listed by the source, chain 1 of 2) above
Target sequence in this assay (VL, as listed by the source, chain 2 of 2): as the sequence (VL, as listed by the source, chain 2 of 2) above
RACPWSCREL (also called G9 X1 (Leu 2) to Ala) [FMC63 Mimotope Mutant RACPWSCREL]: binds.
RLCPWSCRAL (also called G9 X4 (Glu 9) to Ala) [FMC63 Mimotope Mutant RLCPWSCRAL]: binds.
RLCPWSCREA (also called G9 X5 (Leu 10) to Ala) [FMC63 Mimotope Mutant RLCPWSCREA]: binds.
RLCPWACREL (also called G9 X2 (Ser 6) to Ala) [FMC63 Mimotope Mutant RLCPWACREL]: binds.
RLCPWSCAEL (also called G9 X3 (Arg 8) to Ala) [FMC63 Mimotope Mutant RLCPWSCAEL]: binds.

These binders were tested against B1 (assay: yeast display selection with 1D3 IgG).
Experimental: as §1
IRVLMSRVFA [1D3 Mimotope (E2) IRVLMSRVFA]: binds.
B9: binds.
FHWFINVPPF [1D3 Mimotope (C11) FHWFINVPPF]: binds.

These binders were tested against T1, FMC63 IgG (assay: yeast-display FACS (MFI) titration with biotinylated FMC63 IgG, 0.01-1000 nM).
Target sequence in this assay (VH, as listed by the source, chain 1 of 2): as the sequence (VH, as listed by the source, chain 1 of 2) above
Target sequence in this assay (VL, as listed by the source, chain 2 of 2): as the sequence (VL, as listed by the source, chain 2 of 2) above
RLCPWSCVPI [FMC63 Mimotope (E6) RLCPWSCVPI] was tested, and the Kd was 102 nM.

The binders below were run against T2, FMC63 scFv (biotinylated) (assay: yeast-display FACS titration with biotinylated FMC63 scFv).
T2 construct: Whole scFv entry (VL-(G4S)3-VH); also called FMC63-scFv monomer; biotinylated FMC63 scFv
T2 sequence (scFv, as listed by the source): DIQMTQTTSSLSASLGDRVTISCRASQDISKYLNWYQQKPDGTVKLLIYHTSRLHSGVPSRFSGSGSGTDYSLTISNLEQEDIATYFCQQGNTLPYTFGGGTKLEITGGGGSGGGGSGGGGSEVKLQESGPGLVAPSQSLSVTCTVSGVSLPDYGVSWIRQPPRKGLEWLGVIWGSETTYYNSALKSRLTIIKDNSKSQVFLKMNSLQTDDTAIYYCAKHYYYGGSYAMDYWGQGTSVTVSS
Binder RLCPWSCVPI [FMC63 Mimotope (E6) RLCPWSCVPI] has a Kd of 126 nM.
Work on RICPWNCKEL (also called F12 mimotope) [FMC63 Mimotope (F12) RICPWNCKEL] yielded a Kd of 42 nM.

The binders below were run against T2, FMC63 scFv (assay: flow cytometry (MFI) of yeast clone with biotinylated FMC63 scFv and streptavidin-PE).
Binder RICPWNCKELYWLPDE [FMC63 mimotope K-A11 RICPWNCKELYWLPDE] has a Kd of 16.8 nM.
In the case of RICPWNCKELPSPPRIFGNR [FMC63 mimotope K-C2 RICPWNCKELPSPPRIFGNR], the Kd is reported as 14.8 nM.
With PPPRICPWNCKELPLDWPW [FMC63 mimotope K-B5 PPPRICPWNCKELPLDWPW] the Kd was 23.8 nM.
With AKRRERDYVGRICPWNCKELHPDTRHRIPV [FMC63 mimotope K-A10 AKRRERDYVGRICPWNCKELHPDTRHRIPV] the Kd was 18.7 nM.
QFQRICPWNCKELYWLPDQ [FMC63 mimotope K-F5 QFQRICPWNCKELYWLPDQ] was tested, and the Kd was 13.2 nM.
RICPWNCKEL (also called F12 mimotope) [FMC63 Mimotope (F12) RICPWNCKEL] was tested, and the Kd was 45.5 nM.
RICPWNCKELPTPYMMFDM [FMC63 mimotope K-A3 RICPWNCKELPTPYMMFDM] was tested, and the Kd was 22.1 nM.
For PLSRICPWNCKELYWLPQR [FMC63 mimotope K-A5 PLSRICPWNCKELYWLPQR], the Kd was 12.8 nM.
In the case of AGTRICPWNCKELYWLPDE [FMC63 mimotope K-D11 AGTRICPWNCKELYWLPDE], the Kd is reported as 15.9 nM.

What follows are binders tested against T1, FMC63 IgG (assay: flow cytometry of yeast-displayed mutant).
Experimental: as §2
B10: no binding (tested: 5 µM FMC63 IgG).
B11: no binding (tested: 5 µM FMC63 IgG).

The binders below were run against T1, FMC63 IgG (assay: yeast display FACS selection with biotinylated FMC63 IgG, first sort).
Description: As in Example 1, a yeast library was generated using nested PCR and the primers in Table 3.
Target sequence in this assay (VH, as listed by the source, chain 1 of 2): as the sequence (VH, as listed by the source, chain 1 of 2) above
Target sequence in this assay (VL, as listed by the source, chain 2 of 2): as the sequence (VL, as listed by the source, chain 2 of 2) above
RICPWACLSL [FMC63 Mimotope RICPWACLSL]: binds.
RLCPWECRVL [FMC63 Mimotope RLCPWECRVL]: binds.
RICPWNCSKL [FMC63 Mimotope RICPWNCSKL]: binds.
RLCPWSCMPR [FMC63 Mimotope RLCPWSCMPR]: binds.
RLCPWDCLIL [FMC63 Mimotope RLCPWDCLIL]: binds.
RLCPWHCAII [FMC63 Mimotope RLCPWHCAII]: binds.
RLCPWACRQL [FMC63 Mimotope RLCPWACRQL]: binds.
RVCPWSCVEQ [FMC63 Mimotope RVCPWSCVEQ]: binds.
RLCPWNCIHW [FMC63 Mimotope RLCPWNCIHW]: binds.

Target: B2
Experiment: ELISA, OD(450nm) against the concentration of 1D3 IgG; label beside the triangle curve (H1 + E2)
Experimental: as §1
B1 was tested, and the Kd was 6.7 nM.
